One assay has as its target 4A8 monoclonal antibody. The assay is described as follows: BLI. On the technique in general: Biolayer interferometry detects binding as a change in optical thickness at a sensor tip.
The next assay addresses CB6 monoclonal antibody. Description: BLI.

For orientation: Kd means the free concentration of one partner at which half of the binding sites on the other are occupied at equilibrium, for simple one-to-one binding. Read a low Kd as higher affinity.

“S1-I53-50 NP (from UniProt P0DTC2 16-685) (complex)”: the Kd in the assay with 4A8 monoclonal antibody is 0.0736 nM; with CB6 monoclonal antibody, less than 0.001 nM.
On to “S1-ferritin NP (from UniProt P0DTC2 16-685) (complex)”, for which the Kd is 1.18 nM with 4A8 monoclonal antibody and less than 0.001 nM with CB6 monoclonal antibody.
As to “S1-mi3 NP (from UniProt P0DTC2 16-685) (complex)”, the Kd with 4A8 monoclonal antibody and with CB6 monoclonal antibody was less than 0.001 nM in each case.
